Data published in publication PMC7586906, “Development and characterization of specific anti‐Usutu virus chicken‐derived single chain variable fragment antibodies” (Protein Science : A Publication of the Protein Society, 2020).
Where “and” joins values, the source holds several entries; their conditions need not be identical. Identical values can stand only once.

T1: USUV E protein DIII group B (Usutu virus, sequence group B, strain)
T1 construct: 103 amino acids, 11.0 kDa; also called USUV B; USUV DIII group B
T1 chain: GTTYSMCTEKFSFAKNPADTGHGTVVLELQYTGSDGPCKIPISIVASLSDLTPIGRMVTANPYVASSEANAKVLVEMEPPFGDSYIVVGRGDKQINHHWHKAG

T2: WNV E protein DIII (West Nile virus NY99 (also called 2741), strain)
T2 construct: domain III of the envelope (E) protein of West Nile virus; 103 amino acids, 10.9 kDa; also called WNV DIII; WNV E protein DIII NY99 strain
T2 chain: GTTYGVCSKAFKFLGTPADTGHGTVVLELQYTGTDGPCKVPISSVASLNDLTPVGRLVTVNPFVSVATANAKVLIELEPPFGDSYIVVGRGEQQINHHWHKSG

T3: USUV E protein DIII group I (Usutu virus, sequence group I, strain)
T3 construct: 103 amino acids, 10.9 kDa; also called USUV I; USUV DIII group I
T3 chain: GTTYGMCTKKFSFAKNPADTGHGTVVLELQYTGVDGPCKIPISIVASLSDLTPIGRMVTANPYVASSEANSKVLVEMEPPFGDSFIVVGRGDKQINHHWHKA


Assays:
[1] = target: T4, USUV strain Vienna-2001 whole virus (E protein on virions) (Usutu virus Vienna-2001, UniProt Q5WPU5, strain); experiment: ELISA; virus ELISA: PEG-precipitated USUV Vienna-2001 (8.1 × 10^6 pfu in 50 μl) coated on the plate, blocked with 5% BSA, scFv 2.5-20 μg/ml for 1 hr at 37°C, detected by HRP anti-His, 450 nm; conditions: one partner purified
T4 construct: envelope (E) protein of Usutu virus strain Vienna-2001, cut from the polyprotein, as it stands on whole virions coated on the plate; The assay used whole virus; The other proteins of the virion are not written; also called USUV Vienna-2001; source: virus expanded in C6/36 cells, precipitated with 8% PEG8000, resuspended in NTE buffer

[2] = target: T1, USUV E protein DIII group B; experiment: SPR; Biacore T200; scFv captured by its His-tag on a CM5 chip (His Capture Kit), E protein DIII as analyte in two-fold dilutions (31-2,000 nM; WNV also 100-32,000 nM), multi-cycle kinetics, 25°C, PBS with 0.05% Tween 20, 30 μl/min; 1:1 kinetic fit (legend of Figure 4), steady-state affinity model named for KD in the methods; conditions: both partners purified
[3] = target: T2, WNV E protein DIII; experiment: as above; conditions: both partners purified
[4] = target: T3, USUV E protein DIII group I; experiment: as above; conditions: both partners purified
[5] = target: T5, soluble E (sE) protein of WNV strain NY-1999 (West Nile virus NY-1999 (NY99), UniProt Q9Q6P4, strain); experiment: far-Western, overlay or dot blot; western blot at one amount: 0.5 μg of E protein DIII and 0.5 or 0.25 μg of sE per well on a 15% SDS gel, probed with 5 μg of scFv in 10 ml PBST, then mouse anti-HA and HRP goat anti-mouse; conditions: both partners purified
T5 construct: whole ectodomain of the envelope (E) protein of West Nile virus strain NY-1999 (NY99); also called sE of WNV; WNV NY99 sE; source: Drosophila S2 cells, provided by Prof; Karin Stiasny and Lena Roßbacher

[6] = target: T6, soluble E (sE) protein of USUV strain Bologna-2009 (Usutu virus strain Bologna-2009, UniProt R4HE74, strain); experiment: as above; conditions: both partners purified
T6 construct: also called sE of USUV; USUV sE; source: Drosophila S2 cells, provided by Prof; Karin Stiasny and Lena Roßbacher

Binder	binding result [1]	Kd [2]	koff [2]	kon [2]	Kd [3] [nM]	koff [3]	kon [3]	Kd [4]	koff [4]	kon [4]	binding result [5]	binding result [6]
scFv A9 (scFv, V domains shown, chicken light chain variable region (V lambda) of A9, N-terminal part of the scFv; long linker between V lambda and VH; chicken heavy chain variable region (VH) of A9; From a chicken immune phage display library in pComb3XSS; also called cross-reactive scFv; source: E. coli TOP10, purified (IMAC, HisTrap FF); not shown: His6, C-terminal, kept; HA, C-terminal, kept) VH: AVTLDESGGGLQTPGGTLSLVCKASGFTFSSVNMFWVRQAPGKGLEYVASISNTGSSTNYGAAVKGRATISRDNGQSTVRLQLNNLRAEDTATYFCAKDAYGYSFTVTPGYTIDAWGHGTEVIVSS VL: ALTQPSSVSANLGGTVKITCSGGGGSYGWYQQKSPGSAPVTVIYENTKRPSNIPSRFSGSKSGSTSTLTITGVQAEDEAVYYCGSTDNNNIFGAGTTLTVL	binds	410 nM and 360 nM	0.062 s⁻¹ and 0.059 s⁻¹	152000 M⁻¹ s⁻¹ and 166000 M⁻¹ s⁻¹	100	0.105 s⁻¹ and 0.094 s⁻¹	1.04e+06 M⁻¹ s⁻¹ and 970000 M⁻¹ s⁻¹	290 nM and 300 nM	0.05 s⁻¹ and 0.048 s⁻¹	170000 M⁻¹ s⁻¹ and 168000 M⁻¹ s⁻¹	binds	binds
scFv G1 (scFv, V domains shown, chicken light chain variable region (V lambda) of G1, N-terminal part of the scFv; long linker between V lambda and VH; From a chicken immune phage display library in pComb3XSS; Could not be held stably on the SPR chip; source: E. coli TOP10, purified (IMAC, HisTrap FF); not shown: His6, C-terminal, kept; HA, C-terminal, kept) VH: AVTLDESGGGLQTPGGGLSLVCKASGFDFSRYGMNWVRQAPGKGLEWVAGISPDGSGTWYATAVKGRATISRDNGQSTVRLQLNNLRAEDTATYYCTRGNGDSFDAWGHGTEVIVSS VL: ALTQPSSVSANLGGTVKITCSGGSYSYGWYQQKSPGSAPVTVIYYNDKRPSDIPSRFSGSKSGSTGTLTITGVQADDEAVYFCGGFDSSAGYVGIFGAGTTLTVL	binds	–	–	–	–	–	–	–	–	–	–	binds
scFv D2.2 (scFv, V domains shown, chicken light chain variable region (V lambda) of D2.2, N-terminal part of the scFv; long linker between V lambda and VH; chicken heavy chain variable region (VH) of D2.2; From a chicken immune phage display library in pComb3XSS; source: E. coli TOP10, purified (IMAC, HisTrap FF); not shown: His6, C-terminal, kept; HA, C-terminal, kept) VH: AVTLDESGGGLQTPGGALSLVCKGSGFTFSSHAMMWVRQAPGKGLEWVAGISRDGSTYYGAAVKGRATISRDDGQSTVRLQLNNLRAEDTGTYFCAKDVYGYCDTISGCEAGTIDAWGHGTEVIVSS VL: ALTQPSSVSANLGETVKITCSGSSGSYGWYQQKSPGSAPVTVIYYNDKRPSDIPSRFSGSKSGSTGTLTITGVQADDEAVYFCGSEDSSSTYAGIFGAGTTLTVL	binds	230 nM and 250 nM	0.074 s⁻¹ and 0.069 s⁻¹	326000 M⁻¹ s⁻¹ and 273000 M⁻¹ s⁻¹	–	–	–	–	–	–	–	–
scFv A8 (scFv, V domains shown, chicken light chain variable region (V lambda) of A8, N-terminal part of the scFv; long linker between V lambda and VH; chicken heavy chain variable region (VH) of A8; From a chicken immune phage display library in pComb3XSS; source: E. coli TOP10, purified (IMAC, HisTrap FF); not shown: His6, C-terminal, kept; HA, C-terminal, kept) VH: AVTLDESGGGLQTPGGGLSLVCKASGFTMSSYHMGWVRQAPGKGLEYVVGIDNTGRYTDYGAAVKGRATISRDNGQSTLRLQLNNLRAEDTGTYFCAKSAYLGRGCWDAELCAGEIDAWGHGTEVIVSS VL: ALTQPSSVSANLGGTVKITCSGGYSGYGWYQQKSPGSAPVTLIYDNTKRPSDIPSRFSGSKSGSTGTLTITGVQAEDEAVYYCGSGDSRNYVGIFGAGTTLTVR	binds	100 nM	0.002 s⁻¹	20000 M⁻¹ s⁻¹	–	–	–	60 nM	0.001 s⁻¹	19800 M⁻¹ s⁻¹	–	–
scFv A12 (scFv, V domains shown, chicken light chain variable region (V lambda) of A12, N-terminal part of the scFv; long linker between V lambda and VH; chicken heavy chain variable region (VH) of A12; From a chicken immune phage display library in pComb3XSS; source: E. coli TOP10, purified (IMAC, HisTrap FF); not shown: His6, C-terminal, kept; HA, C-terminal, kept) VH: AVTLDESGGGLQTPGGALSLVCKASGFTFSSYHMGWVRQAPGKGLEYVAGIDNTGRYTDYGAAVKGRATISRDNGQSTLRLQLNNLRAEDTGTYFCAKSAYLGRGCWGAELCAGEIDTWGHGTEVIVSS VL: ALTQPSSVSANPGETVQITCSGSSNKYGNNYGWYQQKSPGSAPVTVIYDDDKRPSDIPPRFSGSKSGSTNTLTITGVQADDEAVYFCGAYDNSDSGIFGAGTALTVL	binds	300 nM and 290 nM	0.012 s⁻¹ and 0.01 s⁻¹	39600 M⁻¹ s⁻¹ and 34200 M⁻¹ s⁻¹	–	–	–	140 nM and 130 nM	0.007 s⁻¹ and 0.006 s⁻¹	48600 M⁻¹ s⁻¹ and 46600 M⁻¹ s⁻¹	–	–
